For data set [1], the system named is RBPMS-A WT. The data set is described as follows: UV crosslinking. As to conditions: 4 uM protein, EMSA: 50 mM HEPES pH 7.2-7.9, 15 mM MgCl2, 25% glycerol, 5 mM DTT, 45 mM KCl, 5 ug tRNA, 20 fmol RNA, 25 min at 30 C, then 5 ug heparin 5 min at 30 C. For orientation: A gel shift assay detects complexes by their altered migration in electrophoresis.
Data set [2] deals with RBPMS-A WT. The data set is described as follows: EMSA. Particulars: apparent Kd, Hill fit; tRNA and heparin present; EMSA: 50 mM HEPES pH 7.2-7.9, 15 mM MgCl2, 25% glycerol, 5 mM DTT, 45 mM KCl, 5 ug tRNA, 20 fmol RNA, 25 min at 30 C, then 5 ug heparin 5 min at 30 C; 4% ….
Data set [3] has as its target recombinant RBPMS-A T/A (double mutant T113A and T118A) (UniProt Q93062). Description: AUC; sedimentation velocity, interference data, 40 000 rpm, 20°C, overnight; protein at 0.5 mg/ml in 20 mM HEPES, 500 mM KCl, 1 mM TCEP, pH 7.9; c(s) distributions by SEDFIT; self-association into dimers and higher-order oligomers.
Data set [4] addresses recombinant wild-type RBPMS-A (RNA Binding Protein with Multiple Splicing, canonical isoform A) (UniProt Q93062). The data set is described as above.
Data set [5] concerns the target truncated RBPMS-A T/E (amino acids 1-122, T113E and T118E), the sample used for NMR (UniProt Q93062). Description: SEC-MALS; 50 μl at ~2 mg/ml on Superdex 75 10/300 GL increase, 10 mM HEPES pH 6.8, 50 mM KCl, 0.5 ml/min; self-association (dimer).

One may read the stoichiometry N as a count of units in the complex or per binding partner.

As to Tpm1 UV-crosslinking RNA, the binding signal (% (reference)) in data set [1] (no nuclear extract) and in data set [1] (with 20% HeLa nuclear extract) was 100 in each case.

With “Tpm1 exon 3 upstream intron EMSA RNA (three tandem CAC motifs)”, in data set [2], the Kd was 213 nM. For “recombinant RBPMS-A T/A (double mutant T113A and T118A) (from UniProt Q93062 2-196) (natural protein)”, the stoichiometry N in data set [3] was 2. For the substance “recombinant wild-type RBPMS-A (RNA Binding Protein with Multiple Splicing, canonical isoform A) (from UniProt Q93062 2-196) (natural protein)”, the stoichiometry N in data set [4] is 2.

With “truncated RBPMS-A T/E (amino acids 1-122, T113E and T118E), the sample used for NMR (from UniProt Q93062 1-122) (domain or fragment)”, the stoichiometry N in data set [5] stood at 2.

The values above are taken from paper PMC9723635.
